# Measured values as given in US20070224189A1.
# Target: extracellular region of human V158 FcγRIIIa fused with glutathione S-Transferase (GST) (human) (UniProt P08637)
# Assay: AlphaScreen competition
# extracellular region of human V158 FcγRIIIa fused with glutathione S-Transferase (GST) (human), sequence (P08637 17-208 F176V): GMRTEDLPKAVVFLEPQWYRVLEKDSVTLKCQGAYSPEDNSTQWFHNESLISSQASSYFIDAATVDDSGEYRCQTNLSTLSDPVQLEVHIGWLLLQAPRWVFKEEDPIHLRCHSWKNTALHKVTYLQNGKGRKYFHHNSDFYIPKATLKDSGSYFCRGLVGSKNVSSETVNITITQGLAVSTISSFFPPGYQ
row,FcγRIIIa Fold [fold vs WT],Substance
1,0.06,F241L/V262I alemtuzumab (antibody)
2,0.02,F241R/F243Q/V262T/V264R alemtuzumab (antibody)
3,0.05,V264E/N297D/I332E alemtuzumab (antibody)
4,0.06,S239E/N297D/I332E alemtuzumab (antibody)
5,0.05,A327L alemtuzumab (antibody)
6,0.07,L234I/L235D trastuzumab (antibody)
7,0.03,S239D/D265V/N297D/I332E alemtuzumab (antibody)
8,0.05,F241E/F243Y/V262T/V264R alemtuzumab (antibody)
9,0.05,S239E/D265Q alemtuzumab (antibody)
10,0.03,S267Q/A327S alemtuzumab (antibody)
11,0.07,F241W/F243W alemtuzumab (antibody)
12,0.05,F241E/F243R/V262E/V264R alemtuzumab (antibody)
13,0.07,F241E/F243Q/V262T/V264E alemtuzumab (antibody)
14,0.04,S239D/D265H/N297D/I332E alemtuzumab (antibody)
15,0.03,T299A alemtuzumab (antibody)
16,0.04,Y296N/N297D/I332E alemtuzumab (antibody)
